Assay results published in patent US20260116991A1 (HAINAN SIMCERE ZAIMING PHARMACEUTICAL, published 2026).
Where a chain is given by its changes, count along the chain named.

B1: F1.83.6 human-murine chimeric antibody (antibody, human IgG1, kappa, V domains shown)
VH: QVQLQQSGPELVKPGASVKISCKASGYAFSSSWMNWVKQRPGKGLEWIGRIYPGDGDTNYNGRFKGKATLTVDKSSSTAYMQLSSLTSEDSAVYFCARGGVFTMALDHWGQGTTLTVSS
VL: DIQMTQSPSSLSASLGGKVTITCKASQDINKYIAWYQHKPGKGPRLLIHYTSTLQPGIPSRFSGSGSGRDYSFSISNLEPEDIATYYCLQYDNLFTFGGGTKLEIKR
B2: F1.2.14 human-murine chimeric antibody (antibody, human IgG1, kappa, V domains shown)
VH: RVQLQQSGAELVKPGASVRMSCKASGYTFTAYSIEWMKQNLGKSLEWIGNFRPYNDDTKYNENFKGRATLTVEKSSATVYLELSRLTSDDSAVYYCARSGPTDYFDYWGQGTTLIVSS
VL: DIQMTQSPASLSASVGETVTITCRASDNIYSYLAWYQQKQGQSPQLLVYNAKTLAEGVPSRFSGSGSVTQFSLKIISLQPEDFGTYYCQHHFGTPRTFGGGTKLEIKR
B3: F1.42.8 human-murine chimeric antibody (antibody, human IgG1, kappa, V domains shown)
VH: HVQLQQPGAELVKPGASVKLSCKASGYTFTSYWMHWVRQRPGQGLEWIEMIHPNSGSTNYNEKFKSKATLTVDKSSSTAYMQLSSLTSEDSAVYYCARGNYNSSLYAMDYWGQGTSVTVSS
VL: DIQMTQTTSSLSASLGDRVTISCSASQGISNYLNWYQQKPDGTVKLLIYYASNLHSGVPSRFSGSGSGTAYSLTISNLEPEDIATYYCQQYSILPYTFGGGTKLEIKR
B4: F1.21.8 human-murine chimeric antibody (antibody, human IgG1, kappa, V domains shown)
VH: EVQLQQSGPELVKPGASVKISCKTSGFLFTGHYMHWVKSSHGNILDWIGYIYPYNAISFYNQKFKGKATLTVDKSSNTAYMELRSLTSEDSAVYYCARGDYGNYVTAYWGQGTLVTVSA
VL: DVLMTQTPLSLPVSLGDQASISCRSSQSIVHSSGNTYLEWYLQKPGQSPKLLIYKVSNRFSGVPDRFSGSGSGTDFTLKISRVEAEDLGVYYCFQGSHLPWTFGGGTKLDIKR
B5: F1.41.17 human-murine chimeric antibody (antibody, human IgG1, kappa, V domains shown)
VH: EVQLVESGGDSVKPGGSLKLSCAASGFTFSSYGMSWVRQTPDKRLEWVATINSGGSYTYYQDSVKGRFTISRDNAKNTLYLQMSSLKSEDTAIYYCVRHHYGSSYDYFDYWGQGTTLTVSS
VL: DIVMTQAAPSVPVMPGESVSISCRSSKSLLHSNGNTHLYWFLQRPGQSPQLLIYRMSNLASGVPDRFSGSGSGTAFTLRISRVEAEDVGVYYCMQHLEYPLTFGAGTKLELKR
B6: F1.78.24 human-murine chimeric antibody (antibody, human IgG1, kappa, V domains shown)
VH: QVQLQQSGAELVKPGASVKMSCKASGYTFTTYPIEWMKQNHGKSLEWIGNFHPYNDDTNYNVKFKGKATLTVEKSSSTVYLELSRLTSDDSALYYCARRREYYGSFDVWGTGTTVTVSS
VL: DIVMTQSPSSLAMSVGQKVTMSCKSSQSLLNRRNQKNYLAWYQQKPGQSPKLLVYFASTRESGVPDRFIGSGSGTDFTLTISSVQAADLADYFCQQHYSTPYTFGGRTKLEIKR
B7: F2.152.3 (antibody, human IgG1, kappa, V domains shown)
VH: EVQLQQSGPELVKPGASVKMSCKASGYTFTDYYMTWVKQSHGKSLEWIGRVNPRNGDTTYNQKFEGRATLTLDKSLSTAFMQLNSLTSEDSAVYYCINSKGHFDYWGQGTTLTVSS
VL: B4 VL with S33N, Y41F, L51S, L99V, W101P, G105A, D110E, I111L
notes: Human-murine chimeric antibody
B8: hAb006LH1L1a (antibody, human IgG1, V domains shown)
VH: EVQLVQSGAEVKKPGSSVKVSCKASGYTFSDYEIHWVRQAPGQGLEWMGAIDPKTGNTAYNQKFMGRVTITADKSTSTAYMELSSLRSEDTAVYYCTRYFSFAYWGQGTLVTVSS
VL: DIVMTQTPLSLPVTPGEPASISCRSSQTFVHSDGNTYLQWYLQKPGQSPQLLIYKVSNRFSGVPDRFSGSGSGTDFTLKISRVEAEDVGVYYCFQGSHVPYTFGQGTKLEIK
notes: Humanized F3.38.7; VH H1 + VL L1a; expressed as human IgG1
B9: hAb007LH1L1a (antibody, human IgG1, V domains shown)
VH: B8 VH with I34M, A50T, K54E, M65K, Y99P, F100Y, F102L, A103T
VL: B8 VL with T28S, N35D
notes: Humanized F3.81.19; VH H1 + VL L1a; expressed as human IgG1
B10: hAb007LH3L1a (antibody, human IgG1, V domains shown)
VH: B8 VH with S30T, I34M, A50T, K54E, M65K, I70L, Y99P, F100Y, F102L, A103T
VL: B8 VL with T28S, N35D
notes: Humanized F3.81.19; VH H3 + VL L1a; expressed as human IgG1
B11: hAb007LH2L1a (antibody, human IgG1, V domains shown)
VH: B8 VH with S30T, I34M, A50T, K54E, M65K, Y99P, F100Y, F102L, A103T
VL: B8 VL with T28S, N35D
notes: Humanized F3.81.19; VH H2 + VL L1a; expressed as human IgG1
B12: hAb006LH3L1a (antibody, human IgG1, V domains shown)
VH: B8 VH with S30T, I70L
VL: B8 VL
notes: Humanized F3.38.7; VH H3 + VL L1a; expressed as human IgG1
B13: hAb006LH2L1a (antibody, human IgG1, V domains shown)
VH: B8 VH with S30T
VL: B8 VL
notes: Humanized F3.38.7; VH H2 + VL L1a; expressed as human IgG1

Each binder was assayed against T1, murine GPC3-his protein (Sino Biological, Cat. No. 50989-M08B) (murine, UniProt Q8CFZ4 25-558) (assay: ELISA, coated murine GPC3-His;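 also: antigen coated on plates at 1 µg/mL, test antibody bound for 2 h at 37 °C, detected with HRP-conjugated secondary antibody and TMB substrate after acid stop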).
T1 construct: Bought protein; also called murine GPC3 protein
T1 sequence (Q8CFZ4 25-558 limits assumed): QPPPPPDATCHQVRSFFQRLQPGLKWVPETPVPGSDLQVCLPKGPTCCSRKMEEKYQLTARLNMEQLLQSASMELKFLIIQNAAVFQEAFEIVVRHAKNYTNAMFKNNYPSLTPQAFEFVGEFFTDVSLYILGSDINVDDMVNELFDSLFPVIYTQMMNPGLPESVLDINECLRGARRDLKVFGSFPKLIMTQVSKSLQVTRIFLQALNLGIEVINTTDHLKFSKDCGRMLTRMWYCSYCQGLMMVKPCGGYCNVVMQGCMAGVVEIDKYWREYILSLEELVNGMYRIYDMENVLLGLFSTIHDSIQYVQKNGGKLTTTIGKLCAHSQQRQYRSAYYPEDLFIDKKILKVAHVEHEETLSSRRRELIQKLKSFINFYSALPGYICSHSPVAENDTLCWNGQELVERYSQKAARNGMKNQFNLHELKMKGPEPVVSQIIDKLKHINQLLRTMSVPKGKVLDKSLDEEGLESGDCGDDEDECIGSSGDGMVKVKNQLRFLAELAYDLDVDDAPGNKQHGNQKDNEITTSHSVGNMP

| Binder | OD450 at 0.0001 nM antibody [OD450 nm] | OD450 at 0.001 nM antibody [OD450 nm] | OD450 at 0.01 nM antibody [OD450 nm] | OD450 at 0.1 nM antibody [OD450 nm] | OD450 at 1 nM antibody [OD450 nm] | OD450 at 10 nM antibody [OD450 nm] | OD450 at 100 nM antibody [OD450 nm] |
| --- | --- | --- | --- | --- | --- | --- | --- |
| B1 | 0.05 | 0.05 | 0.06 | 0.12 | 0.14 | 0.24 | 0.16 |
| B2 | 0.05 | 0.05 | 0.06 | 0.14 | 0.46 | 1.2 | 1.24 |
| B3 | 0.05 | 0.09 | 0.37 | 1.7 | 2.51 | 2.6 | 2.75 |
| B4 | 0.05 | 0.07 | 0.17 | 0.76 | 1.12 | 1.41 | 1.84 |
| B5 | 0.06 | 0.05 | 0.05 | 0.06 | 0.07 | 0.08 | 0.11 |
| B6 | 0.05 | 0.06 | 0.1 | 0.24 | 0.17 | 0.34 | 0.25 |

Each binder was assayed against T2, monkey GPC3-His protein (monkey) (assay: ELISA, monkey GPC3-His coated;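 also: Plate-coated antigen at 1 µg/mL, antibody binding 2 h at 37 °C, detected with HRP-labeled secondary antibody and TMB, absorbance at 450 nm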).
T2 construct: Bought recombinant protein; also called monkey GPC3 protein

| Binder | OD450 at 0.0001 nM [OD450] | OD450 at 0.001 nM [OD450] | OD450 at 0.01 nM [OD450] | OD450 at 0.1 nM [OD450] | OD450 at 1 nM [OD450] | OD450 at 10 nM [OD450] | OD450 at 100 nM [OD450] |
| --- | --- | --- | --- | --- | --- | --- | --- |
| B7 | 0.24 | 0.31 | 0.69 | 1.92 | 2.52 | 2.31 | 2.41 |

These binders were tested against biotinylated labeled human GPC3 protein (produced in-house) (human, UniProt P51654 25-559, limits assumed, biotinylated (Dojindo, Cat. No. LK03); sites not stated) (assay: ELISA, biotinylated human GPC3 protein).

| Binder | OD450 at 0.0008 nM [OD450] | OD450 at 0.004 nM [OD450] | OD450 at 0.02 nM [OD450] | OD450 at 0.11 nM [OD450] | OD450 at 0.53 nM [OD450] | OD450 at 2.67 nM [OD450] | OD450 at 13.33 nM [OD450] | OD450 at 66.66 nM [OD450] |
| --- | --- | --- | --- | --- | --- | --- | --- | --- |
| B8 | 0.076 | 0.078 | 0.101 | 0.268 | 0.904 | 1.49 | 1.92 | 2.1 |
| B9 | 0.087 | 0.112 | 0.218 | 0.634 | 1.57 | 2.1 | 2.2 | 2.22 |
| B10 | 0.083 | 0.088 | 0.14 | 0.353 | 1.04 | 1.78 | 2.04 | 2.03 |
| B11 | 0.092 | 0.099 | 0.173 | 0.491 | 1.29 | 1.95 | 2.12 | 2.09 |
| B12 | 0.076 | 0.072 | 0.087 | 0.207 | 0.909 | 1.48 | 1.83 | 2.07 |
| B13 | 0.073 | 0.072 | 0.076 | 0.139 | 0.584 | 1.37 | 1.74 | 1.92 |
